# According to paper PMC9531334:
# Target: StnCBP-HA-NLuc
# Test: SLC assay (split-luciferase complementation in leaves)
# Details: luminescence intensity/50 mm2 leaf area; n = 3; parent: est. 3500; read off a plot
substance,measurement,value
CLuc-GFP-HC-Pro^O V346I,response,3300
